15 molecules from US20030068675, “Position dependent recognition of GNN nucleotide triplets by zinc fingers” (published 2003) can be followed below.

Common to all, as to assay: EMSA
Holding throughout (details): tags: MBP fusion
Background: A gel shift assay detects complexes by their altered migration in electrophoresis.

Data set [1] deals with ZFP SBS#1315 (synthetic). In short, it runs like this: (§1)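 Purified ZFP was titrated against labeled double-stranded target (1 nM or lower, at least 10-fold below expected Kd) carrying the natural binding site with flanks. Binding buffer was 10 mM Tris pH 7.5, 100 mM KCl, 1 mM MgCl2, 0.1 mM ZnCl2, 5 mM DTT, 10% glycerol, 0.02% BSA, with equilibration for at least 45 min. Bound and free target were separated on a 10% polyacrylamide gel.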
Chain of ZFP SBS#1315 (synthetic) (chain, as listed by the source): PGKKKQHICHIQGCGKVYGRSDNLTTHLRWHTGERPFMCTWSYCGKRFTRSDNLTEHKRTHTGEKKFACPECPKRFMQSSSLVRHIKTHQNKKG

Data set [2] addresses ZFP SBS#1314 (synthetic). The procedure, abridged:
as §1

The target in data set [3] is ZFP SBS#1297 (synthetic). The procedure, abridged: as §1
Chain of ZFP SBS#1297 (synthetic) (chain, as listed by the source): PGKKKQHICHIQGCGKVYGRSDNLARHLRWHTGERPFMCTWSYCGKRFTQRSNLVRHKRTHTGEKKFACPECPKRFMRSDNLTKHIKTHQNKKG
Data set [4] deals with T1, ZFP SBS#1276 (synthetic).
T1 chain: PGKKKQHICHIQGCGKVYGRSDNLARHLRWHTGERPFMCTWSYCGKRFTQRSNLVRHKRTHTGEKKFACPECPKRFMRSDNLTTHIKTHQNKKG
The procedure, abridged:
as §1

The target in data set [5] is T2, ZFP SBS#1252 (synthetic).
T2 chain: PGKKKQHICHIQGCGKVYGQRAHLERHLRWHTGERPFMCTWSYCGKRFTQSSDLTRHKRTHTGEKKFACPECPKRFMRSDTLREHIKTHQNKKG
In short, it runs like this:
as §1

Data set [6] deals with T3, ZFP SBS#1302 (synthetic).
T3 chain: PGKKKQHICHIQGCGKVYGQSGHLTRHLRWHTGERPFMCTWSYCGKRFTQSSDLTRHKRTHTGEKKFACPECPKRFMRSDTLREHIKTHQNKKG
In short, it runs like this: as §1

Data set [7] concerns the target ZFP SBS#1311 (synthetic). In short, it runs like this: as §1
In data set [8] the target is T4, ZFP SBS#1308 (synthetic).
T4 chain: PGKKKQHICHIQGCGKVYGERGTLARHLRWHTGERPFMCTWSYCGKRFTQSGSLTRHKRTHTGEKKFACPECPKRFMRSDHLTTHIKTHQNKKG
The procedure, abridged: as §1

Data set [9] concerns the target ZFP SBS#1298 (synthetic). The procedure, abridged: as §1
Data set [10] addresses T5, ZFP SBS#1239 (synthetic).
T5 chain: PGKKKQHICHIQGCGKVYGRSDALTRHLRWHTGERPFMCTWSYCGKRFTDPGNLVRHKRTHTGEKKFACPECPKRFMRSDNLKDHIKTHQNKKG
The procedure, abridged: as §1

Data set [11] addresses T6, ZFP SBS#1248 (synthetic).
T6 chain: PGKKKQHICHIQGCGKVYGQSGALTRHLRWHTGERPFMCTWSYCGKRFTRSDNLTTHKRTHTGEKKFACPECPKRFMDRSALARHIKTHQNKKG
The procedure, abridged:
as §1

Data set [12] deals with ZFP SBS#1300 (synthetic). The procedure, abridged: as §1
Chain of ZFP SBS#1300 (synthetic) (chain, as listed by the source): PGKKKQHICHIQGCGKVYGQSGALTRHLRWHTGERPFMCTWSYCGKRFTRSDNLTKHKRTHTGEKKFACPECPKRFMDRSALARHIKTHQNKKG
The target in data set [13] is T7, ZFP SBS#1295 (synthetic).
T7 chain: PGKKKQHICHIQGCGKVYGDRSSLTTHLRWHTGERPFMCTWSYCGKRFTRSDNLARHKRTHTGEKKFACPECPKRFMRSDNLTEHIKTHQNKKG
In short, it runs like this: as §1

In data set [14] the target is T8, ZFP SBS#1273 (synthetic).
T8 chain: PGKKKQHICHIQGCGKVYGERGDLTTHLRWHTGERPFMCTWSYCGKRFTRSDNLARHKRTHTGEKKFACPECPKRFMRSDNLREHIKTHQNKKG
The procedure, abridged:
as §1

In data set [15] the target is T9, ZFP SBS#1272 (synthetic).
T9 chain: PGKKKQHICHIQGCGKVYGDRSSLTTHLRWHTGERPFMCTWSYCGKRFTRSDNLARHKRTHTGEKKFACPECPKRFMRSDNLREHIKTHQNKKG
The procedure, abridged: as §1

Data set [16] addresses T10, ZFP SBS#1296 (synthetic).
T10 chain: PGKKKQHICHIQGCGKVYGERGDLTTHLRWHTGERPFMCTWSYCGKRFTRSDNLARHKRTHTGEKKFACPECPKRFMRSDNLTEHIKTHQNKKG
In short, it runs like this: as §1

Data set [17] concerns the target T11, ZFP SBS#1306 (synthetic).
T11 chain: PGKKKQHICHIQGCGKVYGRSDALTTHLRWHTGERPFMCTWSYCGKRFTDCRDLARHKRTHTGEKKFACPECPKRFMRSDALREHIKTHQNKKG
In short, it runs like this:
as §1

Data set [18] addresses T12, ZFP SBS#526 (synthetic).
T12 chain: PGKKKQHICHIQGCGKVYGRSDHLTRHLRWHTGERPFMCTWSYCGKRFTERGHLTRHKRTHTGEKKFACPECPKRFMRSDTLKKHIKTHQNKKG
In short, it runs like this:
as §1

Data set [19] concerns the target T13, ZFP SBS#739 (synthetic).
T13 chain: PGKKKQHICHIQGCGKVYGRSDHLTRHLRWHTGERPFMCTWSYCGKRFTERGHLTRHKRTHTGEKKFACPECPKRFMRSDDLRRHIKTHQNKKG
In short, it runs like this: as §1

The target in data set [20] is T14, ZFP SBS#1319 (synthetic).
T14 chain: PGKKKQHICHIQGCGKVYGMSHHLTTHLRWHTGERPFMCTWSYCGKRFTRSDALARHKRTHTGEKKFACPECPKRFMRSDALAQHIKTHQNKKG
The procedure, abridged: as §1

The target in data set [21] is T15, ZFP SBS#1318 (synthetic, UniProt P08047).
T15 chain: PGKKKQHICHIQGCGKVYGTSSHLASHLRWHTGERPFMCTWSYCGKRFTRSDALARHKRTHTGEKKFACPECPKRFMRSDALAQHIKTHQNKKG
The procedure, abridged:
as §1

Data set [22] concerns the target ZFP SBS#1313 (synthetic, UniProt P08047). The procedure, abridged: as §1
Data set [23] deals with ZFP SBS#1312 (synthetic, UniProt P08047). In short, it runs like this:
as §1

Data set [24] has as its target T16, ZFP SBS#1321 (synthetic).
T16 chain: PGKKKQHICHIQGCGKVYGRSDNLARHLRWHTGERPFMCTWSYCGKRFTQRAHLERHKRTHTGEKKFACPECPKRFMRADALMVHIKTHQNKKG
In short, it runs like this: as §1

Data set [25] deals with T17, ZFP SBS#1320 (synthetic).
T17 chain: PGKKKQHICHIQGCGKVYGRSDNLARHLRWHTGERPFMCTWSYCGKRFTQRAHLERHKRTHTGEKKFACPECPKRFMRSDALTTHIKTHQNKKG
The procedure, abridged:
as §1

In data set [26] the target is T18, ZFP SBS#1309 (synthetic).
T18 chain: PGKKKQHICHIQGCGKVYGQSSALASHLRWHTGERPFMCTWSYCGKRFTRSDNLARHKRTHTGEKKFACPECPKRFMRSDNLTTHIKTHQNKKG
The procedure, abridged:
as §1

Data set [27] concerns the target T19, ZFP SBS#1310 (synthetic, UniProt P08047).
T19 chain: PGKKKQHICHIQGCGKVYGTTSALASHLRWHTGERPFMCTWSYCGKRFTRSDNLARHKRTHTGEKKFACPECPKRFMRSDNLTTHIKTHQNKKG
The procedure, abridged: as §1

Data set [28] concerns the target T20, ZFP SBS#1303 (synthetic).
T20 chain: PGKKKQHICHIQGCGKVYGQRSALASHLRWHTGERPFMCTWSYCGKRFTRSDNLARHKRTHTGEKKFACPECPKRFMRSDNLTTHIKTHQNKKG
The procedure, abridged:
as §1

Data set [29] has as its target T21, ZFP SBS#1326 (synthetic).
T21 chain: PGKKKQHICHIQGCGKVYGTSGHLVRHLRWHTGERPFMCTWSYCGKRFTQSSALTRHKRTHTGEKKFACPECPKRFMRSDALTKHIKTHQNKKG
In short, it runs like this:
as §1

The target in data set [30] is T22, ZFP SBS#1328 (synthetic).
T22 chain: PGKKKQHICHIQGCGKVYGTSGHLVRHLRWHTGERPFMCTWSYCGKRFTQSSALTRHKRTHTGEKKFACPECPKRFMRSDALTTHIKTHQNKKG
The procedure, abridged:
as §1

The target of data set [31] is T23, ZFP SBS#1327 (synthetic).
T23 chain: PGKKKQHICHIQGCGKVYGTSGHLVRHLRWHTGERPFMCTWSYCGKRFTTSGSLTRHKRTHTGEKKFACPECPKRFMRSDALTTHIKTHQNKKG
In short, it runs like this: as §1

Data set [32] deals with T24, ZFP SBS#1325 (synthetic).
T24 chain: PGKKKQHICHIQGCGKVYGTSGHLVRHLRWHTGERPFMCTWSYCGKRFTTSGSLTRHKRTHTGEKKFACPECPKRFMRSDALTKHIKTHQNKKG
The procedure, abridged:
as §1

In data set [33] the target is ZFP SBS#1324 (synthetic). The procedure, abridged: as §1
Chain of ZFP SBS#1324 (synthetic) (chain, as listed by the source): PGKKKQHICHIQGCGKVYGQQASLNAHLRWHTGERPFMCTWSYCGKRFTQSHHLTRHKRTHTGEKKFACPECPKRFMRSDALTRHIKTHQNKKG
Data set [34] has as its target ZFP SBS#1322 (synthetic). In short, it runs like this:
as §1

Data set [35] concerns the target ZFP SBS#1323 (synthetic). In short, it runs like this:
as §1

Chain of ZFP SBS#1312 (P08047 other isoform, or with tags, fused parts or gaps): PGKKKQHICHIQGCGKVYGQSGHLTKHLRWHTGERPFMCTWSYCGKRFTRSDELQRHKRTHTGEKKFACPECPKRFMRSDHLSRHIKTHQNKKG
Chain of ZFP SBS#1311 (synthetic) (chain, as listed by the source): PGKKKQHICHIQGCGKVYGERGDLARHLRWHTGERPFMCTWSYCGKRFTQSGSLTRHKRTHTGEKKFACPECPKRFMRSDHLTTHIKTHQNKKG
Chain of ZFP SBS#1313 (P08047 other isoform, or with tags, fused parts or gaps): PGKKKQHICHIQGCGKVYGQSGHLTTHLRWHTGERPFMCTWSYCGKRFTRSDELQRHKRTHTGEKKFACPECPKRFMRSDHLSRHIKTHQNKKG
Chain of ZFP SBS#1298 (synthetic) (chain, as listed by the source): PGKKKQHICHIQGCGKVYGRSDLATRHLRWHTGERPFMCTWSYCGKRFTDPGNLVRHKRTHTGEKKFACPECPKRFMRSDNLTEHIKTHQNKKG
Chain of ZFP SBS#1322 (synthetic) (chain, as listed by the source): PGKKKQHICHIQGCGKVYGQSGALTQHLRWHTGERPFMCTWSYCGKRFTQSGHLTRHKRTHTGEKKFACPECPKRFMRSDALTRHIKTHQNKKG

B1: GTACAGTAG (dsDNA)
DNA 1: GTACAGTAG
DNA 2: CTACTGTAC
In general, Kd refers to the constant that tells how readily two partners part at equilibrium. Read a high Kd as weaker binding. Consider B1, for which the Kd in data set [1] was 9.27 nM; in data set [2], 3.09 nM.

B2: TAGGAAGAG (dsDNA)
DNA 1: TAGGAAGAG
DNA 2: CTCTTCCTA
As to B2, the Kd in data set [3] was found to be 0.05 nM; in [4], 0.685 nM.

B3: CCGGCTGGA (dsDNA)
DNA 1: CCGGCTGGA
DNA 2: TCCAGCCGG
For B3, the results for the Kd in data set [5] and in data set [6] were 0.153 nM and 0.05 nM, respectively.

B4: TGGGCAGCC (dsDNA)
DNA 1: TGGGCAGCC
DNA 2: GGCTGCCCA
For B4, the Kd in data set [7] was 0.91 nM; in [8] it was 0.305 nM.

B5: CAGGACGTG (dsDNA)
DNA 1: CAGGACGTG
DNA 2: CACGTCCTG
Turning to B5, the Kd in data set [9] was found to be 0.05 nM; in data set [10], 0.144 nM.

B6: GTCTAGGTA (dsDNA)
DNA 1: GTCTAGGTA
DNA 2: TACCTAGAC
In the case of B6, the Kd was 5.14 nM in data set [11] and 0.46 nM in [12].

B7: CAGGAGTCC (dsDNA)
DNA 1: CAGGAGTCC
DNA 2: GGACTCCTG
For the molecule B7, the Kd was 0.116 nM in data set [13], 0.1 nM in data set [14], 0.04 nM in [15] and 37 nM in data set [16].

B8: CTGGCCTTG (dsDNA)
DNA 1: CTGGCCTTG
DNA 2: CAAGGCCAG
B8 came in with a Kd in [17] of 2.29 nM.

B9: GCGGGCGGGC (dsDNA)
DNA 1: GCGGGCGGGC
DNA 2: GCCCGCCCGC
Turning to B9, the Kd in [18] turned out to be 8 nM; in data set [19] it was 16.5 nM.

B10: ATGGTGTGT (dsDNA)
DNA 1: ATGGTGTGT
DNA 2: ACACACCAT
With B10, the Kd in data set [20] came out at 0.228 nM; in data set [21], 0.048 nM.

B11: GGGGCGTGA (dsDNA)
DNA 1: GGGGCGTGA
DNA 2: TCACGCCCC
As for B11, the Kd was determined as 0.09 nM in [22] and 0.23 nM in [23].

B12: TTGGGAGAG (dsDNA)
DNA 1: TTGGGAGAG
DNA 2: CTCTCCCAA
Turning to B12, the Kd is 0.127 nM in data set [24] and 0.044 nM in data set [25].

B13: TAGGAGTTT (dsDNA)
DNA 1: TAGGAGTTT
DNA 2: AAACTCCTA
Turning to B13, the results for the Kd in data set [26], in [27] and in data set [28] were 0.184 nM, 0.075 nM and 0.088 nM, respectively.

B14: TTGGTTGGT (dsDNA)
DNA 1: TTGGTTGGT
DNA 2: ACCAACCAA
On to B14, for which the Kd in data set [29] turned out to be 4.38 nM; in data set [30] it was 7.95 nM; in data set [31], 0.566 nM; in data set [32], 0.306 nM.

B15: GTGGGAATA (dsDNA)
DNA 1: GTGGGAATA
DNA 2: TATTCCCAC
Turning to B15, the Kd in [33] amounted to 18.5 nM; in [34], 0.799 nM; in [35], 0.744 nM.
